For experiment [1], the target named is T1, specific receptors for CSF-1 on J774.2 mouse macrophage cells (mouse) (UniProt P09581).
T1 sequence: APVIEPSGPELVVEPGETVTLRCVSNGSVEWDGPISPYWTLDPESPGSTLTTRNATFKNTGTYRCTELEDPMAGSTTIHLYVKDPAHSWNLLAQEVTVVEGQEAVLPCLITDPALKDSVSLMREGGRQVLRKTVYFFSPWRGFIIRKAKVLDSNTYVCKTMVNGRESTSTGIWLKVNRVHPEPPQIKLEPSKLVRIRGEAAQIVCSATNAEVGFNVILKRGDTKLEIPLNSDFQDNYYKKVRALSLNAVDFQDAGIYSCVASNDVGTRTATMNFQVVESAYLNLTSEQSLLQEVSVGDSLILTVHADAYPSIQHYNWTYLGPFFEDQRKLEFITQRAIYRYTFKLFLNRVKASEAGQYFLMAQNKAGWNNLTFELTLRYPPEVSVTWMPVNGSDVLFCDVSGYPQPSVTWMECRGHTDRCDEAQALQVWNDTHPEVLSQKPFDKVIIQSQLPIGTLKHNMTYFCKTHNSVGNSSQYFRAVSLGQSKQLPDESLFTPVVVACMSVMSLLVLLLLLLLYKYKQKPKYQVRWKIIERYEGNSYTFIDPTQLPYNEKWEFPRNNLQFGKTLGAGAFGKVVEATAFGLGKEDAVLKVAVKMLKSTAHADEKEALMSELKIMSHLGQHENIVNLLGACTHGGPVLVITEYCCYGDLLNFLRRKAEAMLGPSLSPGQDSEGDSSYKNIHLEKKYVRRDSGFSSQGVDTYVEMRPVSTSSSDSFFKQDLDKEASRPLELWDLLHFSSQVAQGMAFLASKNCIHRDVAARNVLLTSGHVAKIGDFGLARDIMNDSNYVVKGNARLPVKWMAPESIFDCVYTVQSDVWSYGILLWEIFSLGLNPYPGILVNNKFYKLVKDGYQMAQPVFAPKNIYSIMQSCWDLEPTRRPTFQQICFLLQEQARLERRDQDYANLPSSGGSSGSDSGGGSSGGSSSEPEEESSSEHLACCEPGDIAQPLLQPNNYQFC

Experiment [2] addresses T1, specific receptors for CSF-1 on J774.2 mouse macrophage cells (mouse). The source holds these as a separate data set.
Experiment [3] deals with rabbit antisera raised against human urinary CSF-1. Nature of the experiment: radioimmunoassay using anti-CSF antibodies, COS-A2 supernatant.
Experiment [4] deals with T2, specific receptors for CSF-1 on J774.2 mouse macrophage cells (mouse, UniProt P09581).
T2 sequence: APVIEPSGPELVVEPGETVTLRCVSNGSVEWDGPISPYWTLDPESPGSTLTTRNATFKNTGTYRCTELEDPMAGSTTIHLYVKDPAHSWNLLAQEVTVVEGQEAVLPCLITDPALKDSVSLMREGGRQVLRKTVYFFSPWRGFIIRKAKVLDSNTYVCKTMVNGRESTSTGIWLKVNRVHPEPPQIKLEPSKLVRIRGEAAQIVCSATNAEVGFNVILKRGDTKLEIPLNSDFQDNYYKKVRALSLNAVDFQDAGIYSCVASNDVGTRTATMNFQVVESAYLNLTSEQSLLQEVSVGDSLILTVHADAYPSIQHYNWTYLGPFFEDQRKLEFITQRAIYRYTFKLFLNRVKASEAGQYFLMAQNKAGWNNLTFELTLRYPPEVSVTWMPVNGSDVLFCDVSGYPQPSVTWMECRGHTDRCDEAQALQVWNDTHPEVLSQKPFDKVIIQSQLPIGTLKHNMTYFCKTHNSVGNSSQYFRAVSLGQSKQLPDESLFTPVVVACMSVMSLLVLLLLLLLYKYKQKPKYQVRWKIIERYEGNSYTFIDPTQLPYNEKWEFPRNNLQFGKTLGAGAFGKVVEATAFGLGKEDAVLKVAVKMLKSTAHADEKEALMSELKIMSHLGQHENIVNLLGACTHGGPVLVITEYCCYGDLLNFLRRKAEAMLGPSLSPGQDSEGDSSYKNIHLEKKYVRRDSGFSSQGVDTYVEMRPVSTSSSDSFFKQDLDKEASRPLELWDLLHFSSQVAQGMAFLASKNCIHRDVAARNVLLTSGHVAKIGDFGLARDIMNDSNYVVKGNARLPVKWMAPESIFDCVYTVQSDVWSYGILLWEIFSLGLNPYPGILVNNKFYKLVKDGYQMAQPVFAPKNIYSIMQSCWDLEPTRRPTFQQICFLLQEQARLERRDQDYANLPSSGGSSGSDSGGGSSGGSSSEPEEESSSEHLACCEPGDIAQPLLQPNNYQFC
Nature of the experiment: cell-based or functional assay.

Experiment [5] concerns the target rabbit antisera raised against human urinary CSF-1. Nature of the experiment: radioimmunoassay using anti-CSF antibodies, COS-A2 supernatant; first of three values.
Experiment [6] addresses "Rabbit 52" polyclonal antiserum raised against purified human urinary CSF-1. The experiment can be described thus: radioimmunoassay: competition with 125I-labelled MIAPaCa CSF-1 for Rabbit 52 antiserum; medium of SV40-infected CV-1 cells.
Experiment [7] concerns the target T1, specific receptors for CSF-1 on J774.2 mouse macrophage cells (mouse). The experiment can be described thus: radioreceptor assay: competition with 125I-labelled CSF-1 for receptors on J774.2 mouse macrophage cells; MIAPaCa supernatant as standard.

Ten molecules from patent publication US5681719, “DNA encoding N- and C- terminally truncated colony stimulating factor-1 variants” (Chiron Corporation, dated 1997) can be followed below.

“And” between values parts separate entries of the source, which are not always exact repeats. Identical values can stand only once.

For the molecule “gln52 SCSF, expression product of pCSF-gln52 (ligand)”, in experiment [1], the Bone Marrow Assay, Colony (units/ml) came out at 6210 units/ml and the Bone Marrow Assay, Proliferation (units/ml) turned out to be 2970 units/ml.

The molecule “asp59 SCSF/C∇158, expression product of pCSF-asp59-BamBcl (ligand)” displayed a Mouse Bone Marrow Colony Assay, Colony Forming Units/ml (Colony Forming Units/ml) in experiment [2] of 72000.

On to “asp59 SCSF/C∇150, expression product of pCSF-asp59-gly150 (ligand)”, for which the Mouse Bone Marrow Colony Assay, Colony Forming Units/ml (Colony Forming Units/ml) in experiment [2] worked out at 131000.

For the molecule “pro52 SCSF, expression product of pCSF-pro52 (ligand)”, in experiment [1], the Bone Marrow Assay, Colony (units/ml) is less than 100 units/ml and the Bone Marrow Assay, Proliferation (units/ml) is less than 25 units/ml.

In experiment [1], “asp59 SCSF, expression product of pCSF-asp59 (ligand)” came in with a Bone Marrow Assay, Colony (units/ml) of 9000 units/ml and a Bone Marrow Assay, Proliferation (units/ml) of 3380 units/ml.

B1: SCSF/C∇150, expression product of pCSF-Gly150 (ligand)
chain: EEVSEYCSHMIGSGHLQSLQRLIDSQMETSCQITFEFVDQEQLKDPVCYLKKAFLLVQYIMEDTMRFRDNTPNAIAIVQLQELSLRLKSCFTKDYEEHDKACVRTFYETPLQLLEKVKNVFNETKNLLDKDWNIFSKNCNNSFAECSSQG
As for B1, the Radioimmunoassay (units/ml) in experiment [3] was determined as 26800 units/ml. In addition, in experiment [4], the “Bone Marrow Assay, Colony (units/ml)” value worked out at 55700 units/ml.

B2: SCSF/C∇158, expression product of pCSF-BamBcl (ligand)
chain: EEVSEYCSHMIGSGHLQSLQRLIDSQMETSCQITFEFVDQEQLKDPVCYLKKAFLLVQYIMEDTMRFRDNTPNAIAIVQLQELSLRLKSCFTKDYEEHDKACVRTFYETPLQLLEKVKNVFNETKNLLDKDWNIFSKNCNNSFAECSSQGHERQSEGS
On to B2, for which the Radioimmunoassay (units/ml) in experiment [5] stood at 8800 units/ml.

B3: SCSF/C∇158, expression product of pCSF-BamTGA (ligand)
chain: EEVSEYCSHMIGSGHLQSLQRLIDSQMETSCQITFEFVDQEQLKDPVCYLKKAFLLVQYIMEDTMRFRDNTPNAIAIVQLQELSLRLKSCFTKDYEEHDKACVRTFYETPLQLLEKVKNVFNETKNLLDKDWNIFSKNCNNSFAECSSQGHERQSEGS
As for B3, the Radioimmunoassay (units/ml) in experiment [5] is 8450 units/ml.

B4: SCSF, expression product of pcCSF-17 (short form of human CSF-1) (ligand)
chain: EEVSEYCSHMIGSGHLQSLQRLIDSQMETSCQITFEFVDQEQLKDPVCYLKKAFLLVQYIMEDTMRFRDNTPNAIAIVQLQELSLRLKSCFTKDYEEHDKACVRTFYETPLQLLEKVKNVFNETKNLLDKDWNIFSKNCNNSFAECSSQGHERQSEGSSSPQLQESVFHLLVPSVILVLLAVGGLLFYRWRRRSHQEPQRADSPLEQPEGSPLTQDDRQVELPV
B4 displayed a Radioimmunoassay (units/ml) in experiment [5] of 3130 units/ml. For the same molecule, the CSF-1 by radioimmunoassay (U/ml) in experiment [6] was 2340 U/ml. In experiment [1], this molecule gave a Bone Marrow Assay, Colony (units/ml) of 11100 units/ml and a Bone Marrow Assay, Proliferation (units/ml) of 2800 units/ml. Besides, the CSF-1 concentration by radioreceptor assay in experiment [7] is 2470 U/ml and 3240 U/ml.

B5: expression product of pCSF-Bam: 158 amino acids of CSF-1 fused to six vector-derived residues (ligand)
chain: EEVSEYCSHMIGSGHLQSLQRLIDSQMETSCQITFEFVDQEQLKDPVCYLKKAFLLVQYIMEDTMRFRDNTPNAIAIVQLQELSLRLKSCFTKDYEEHDKACVRTFYETPLQLLEKVKNVFNETKNLLDKDWNIFSKNCNNSFAECSSQGHERQSEGSRHDKIH
In the case of B5, the “Bone Marrow Assay, Colony (units/ml)” value in experiment [4] was 22600 units/ml. The same molecule had a Radioimmunoassay (units/ml) in experiment [5] of 9600 units/ml.
